Data published in the Human Domainome abundance scans (Beltran et al. 2025).
± gives the uncertainty stated by the source.

B1: Myocardin, residues 363 to 406; numbered along this chain, Q8IZQ8 (parent)
chain: KPGPLPPNLDDLKVSELRQQLRIRGLPVSGTKTALMDRLRPFQD

Variants of: B1
Experiment: abundance fitness (aPCA) (normalised: wild type 0, dead -1); higher = more abundant; growth selection in yeast, the domain comes from the species named
Conditions: Homo sapiens

Q: With KPGPLPPNLDDLKVSELRQQLRIRGLPVSGTKTAKMDRLRPFQD [L35K] as the variant, how does the abundance fitness read?
A: The abundance fitness was -0.469 ± 0.093.

Q: With KPGPLPPNLDDLKVSELRQQLRIRGLPVSGTKTAQMDRLRPFQD [L35Q] as the variant, how does the abundance fitness read?
A: The abundance fitness was -0.226 ± 0.1.

Q: With KPGPLPPNLDDLKVSELRQQLRIRGLPVSGTKTAHMDRLRPFQD [L35H] as the variant, how does the abundance fitness read?
A: The abundance fitness was -0.943 ± 0.25.

Q: For KPGPLPPNLDDLKVSELRQQLRIRGLPVSGTKTASMDRLRPFQD [L35S], which abundance fitness is on record?
A: Its abundance fitness is -0.418 ± 0.1.

Q: Which abundance fitness does the source give for KPGPLPPNLDDLKVSELRQQLRIRGLPVSGTKTATMDRLRPFQD [L35T] here?
A: Its abundance fitness is -0.551 ± 0.097.

Q: With KPGPLPPNLDDLKVSELRQQLRIRGLPVSGTKTAWMDRLRPFQD [L35W] as the variant, how does the abundance fitness read?
A: Its abundance fitness is -0.561 ± 0.11.

Q: With KPGPLPPNLDDLKVSELRQQLRIRGLPVSGTKTAVMDRLRPFQD [L35V] as the variant, how does the abundance fitness read?
A: Its abundance fitness is -0.459 ± 0.081.

Q: For KPGPLPPNLDDLKVSELRQQLRIRGLPVSGTKTAMMDRLRPFQD [L35M], which abundance fitness is on record?
A: Its abundance fitness is 0.064 ± 0.093.

Q: For KPGPLPPNLDDLKVSELRQQLRIRGLPVSGTKTAPMDRLRPFQD [L35P], which abundance fitness is on record?
A: The abundance fitness was -0.578 ± 0.079.

Q: Which abundance fitness does the source give for KPGPLPPNLDDLKVSELRQQLRIRGLPVSGTKTAIMDRLRPFQD [L35I] here?
A: Its abundance fitness is 0.092 ± 0.26.

Q: Which abundance fitness does the source give for KPGPLPPNLDDLKVSELRQQLRIRGLPVSGTKTARMDRLRPFQD [L35R] here?
A: Its abundance fitness is -0.799 ± 0.077.

Q: With KPGPLPPNLDDLKVSELRQQLRIRGLPVSGTKTANMDRLRPFQD [L35N] as the variant, how does the abundance fitness read?
A: The abundance fitness was -0.613 ± 0.17.

Q: Which abundance fitness does the source give for KPGPLPPNLDDLKVSELRQQLRIRGLPVSGTKTALMDRLRPCQD [F42C] here?
A: Its abundance fitness is -0.138 ± 0.082.

Q: Which abundance fitness does the source give for KPGPLPPNLDDLKVSELRQQLRIRGLPVSGTKTALMDRLRPDQD [F42D] here?
A: The abundance fitness was -0.061 ± 0.18.

Q: For KPGPLPPNLDDLKVSELRQQLRIRGLPVSGTKTALMDRLRPAQD [F42A], which abundance fitness is on record?
A: Its abundance fitness is 0.067 ± 0.062.

Q: Which abundance fitness does the source give for KPGPLPPNLDDLKVSELRQQLRIRGLPVSGTKTALMDRLVPFQD [R40V] here?
A: Its abundance fitness is -0.376 ± 0.085.

Q: With KPGPLPPNLDDLKVSELRQQLRIRGLPVSGTKTALMDRLEPFQD [R40E] as the variant, how does the abundance fitness read?
A: Its abundance fitness is -0.152 ± 0.087.

Q: For KPGPLPPNLDDLKVSELRQQLRIRGLPVSGTKTALMDRLGPFQD [R40G], which abundance fitness is on record?
A: The abundance fitness was -0.294 ± 0.076.

Q: For KPGPLPPNLDDLKVSELRQQLRIRGLPVSGTKTALMDRLIPFQD [R40I], which abundance fitness is on record?
A: The abundance fitness was -0.205 ± 0.19.

Q: For KPGPLPPNLDDLKVSELRQQLRIRGLPVSGTKTALMDRLDPFQD [R40D], which abundance fitness is on record?
A: Its abundance fitness is -0.614 ± 0.14.

Q: With KPGPLPPNLDDLKVSELRQQLRIRGLPVSGTKTALMDRLCPFQD [R40C] as the variant, how does the abundance fitness read?
A: Its abundance fitness is -0.499 ± 0.28.

Q: With KPGPLPPNLDDLKVSELRQQLRIRGLPVSGTKTALMDRLKPFQD [R40K] as the variant, how does the abundance fitness read?
A: Its abundance fitness is 0.194 ± 0.1.

Q: Which abundance fitness does the source give for KPGPLPPNLDDLKVSELRQQLRIRGLPVSGTKTALMDRLAPFQD [R40A] here?
A: The abundance fitness was 0.092 ± 0.064.

Q: For KPGPLPPNLDDLKVSELRQQLRIRGLPVSGTKTALMDRLMPFQD [R40M], which abundance fitness is on record?
A: The abundance fitness was -0.25 ± 0.1.

Q: For KPGPLPPNLDDLKVSELRQQLRIRGLPVSGTKTALMDRLSPFQD [R40S], which abundance fitness is on record?
A: Its abundance fitness is -0.107 ± 0.09.

Q: Which abundance fitness does the source give for KPGPLPPNLDDLKVSELRQQLRIRGLPVSGTKTALMDRLNPFQD [R40N] here?
A: The abundance fitness was -0.698 ± 0.15.

Q: For KPGPLPPNLDDLKVSELRQQLRIRGLPVSGTKTALMDRLLPFQD [R40L], which abundance fitness is on record?
A: The abundance fitness was -0.284 ± 0.072.

Q: For KPGPLPPNLDDLKVSELRQQLRIRGLPVSGTKTALMDRLTPFQD [R40T], which abundance fitness is on record?
A: The abundance fitness was -0.12 ± 0.099.

Q: With KPGPLPPNLDDLKVSELRQQLRIRGLPVSGTKTALMDRLPPFQD [R40P] as the variant, how does the abundance fitness read?
A: Its abundance fitness is -0.346 ± 0.1.

Q: For KPGPLPPNLDDLKVSELRQQLRIRGLPVSGTKTALMDRLQPFQD [R40Q], which abundance fitness is on record?
A: The abundance fitness was -0.042 ± 0.2.

Q: Which abundance fitness does the source give for KPGPLPPNLDDLKVSELRQQLRIRGLPVSGTKTALMDRLWPFQD [R40W] here?
A: The abundance fitness was -0.731 ± 0.17.

Q: Which abundance fitness does the source give for KPGPLPPNLDDLKVSELRQQLRIRGLPVSGTKTALVDRLRPFQD [M36V] here?
A: Its abundance fitness is -0.183 ± 0.075.

Q: Which abundance fitness does the source give for KPGPLPPNLDDLKVSELRQQLRIRGLPVSGTKTALIDRLRPFQD [M36I] here?
A: The abundance fitness was -0.125 ± 0.16.

Q: For KPGPLPPNLDDLKVSELRQQLRIRGLPVSGTKTALWDRLRPFQD [M36W], which abundance fitness is on record?
A: The abundance fitness was -0.935 ± 0.089.

Q: Which abundance fitness does the source give for KPGPLPPNLDDLKVSELRQQLRIRGLPVSGTKTALPDRLRPFQD [M36P] here?
A: The abundance fitness was -0.419 ± 0.098.

Q: Which abundance fitness does the source give for KPGPLPPNLDDLKVSELRQQLRIRGLPVSGTKTALLDRLRPFQD [M36L] here?
A: The abundance fitness was -0.449 ± 0.098.

Q: With KPGPLPPNLDDLKVSELRQQLRIRGLPVSGTKTALSDRLRPFQD [M36S] as the variant, how does the abundance fitness read?
A: Its abundance fitness is -0.64 ± 0.12.

Q: Which abundance fitness does the source give for KPGPLPPNLDDLKVSELRQQLRIRGLPVSGTKTALEDRLRPFQD [M36E] here?
A: The abundance fitness was -0.463 ± 0.12.

Q: Which abundance fitness does the source give for KPGPLPPNLDDLKVSELRQQLRIRGLPVSGTKTALRDRLRPFQD [M36R] here?
A: The abundance fitness was -0.216 ± 0.066.

Q: For KPGPLPPNLDDLKVSELRQQLRIRGLPVSGTKTALQDRLRPFQD [M36Q], which abundance fitness is on record?
A: Its abundance fitness is -0.398 ± 0.16.

Q: With KPGPLPPNLDDLKVSELRQQLRIRGLPVSGTKTALDDRLRPFQD [M36D] as the variant, how does the abundance fitness read?
A: The abundance fitness was -0.505 ± 0.19.

Q: With KPGPLPPNLDDLKVSELRQQLRIRGLPVSGTKTALGDRLRPFQD [M36G] as the variant, how does the abundance fitness read?
A: Its abundance fitness is -0.668 ± 0.074.

Q: For KPGPLPPNLDDLKVSELRQQLRIRGLPVSGTKTALADRLRPFQD [M36A], which abundance fitness is on record?
A: Its abundance fitness is -0.255 ± 0.066.

Q: With KPGPLPPNLDDLKVSELRQQLRIRGLPVSGTKTALKDRLRPFQD [M36K] as the variant, how does the abundance fitness read?
A: The abundance fitness was -0.083 ± 0.2.

Q: Which abundance fitness does the source give for KPGPLPPNLDDLKVSELRQQLRIRGLPVSGTKTALCDRLRPFQD [M36C] here?
A: The abundance fitness was -0.454 ± 0.16.

Q: Which abundance fitness does the source give for KPGPLPPNLDDLKVSELRQQLRIRGLPVSGTKTALTDRLRPFQD [M36T] here?
A: Its abundance fitness is -0.27 ± 0.094.

Q: With KPGPLPPNLDDLKVSELRQQLRIRGLPVSGTKTALMDRRRPFQD [L39R] as the variant, how does the abundance fitness read?
A: Its abundance fitness is -0.776 ± 0.081.

Q: Which abundance fitness does the source give for KPGPLPPNLDDLKVSELRQQLRIRGLPVSGTKTALMDRSRPFQD [L39S] here?
A: The abundance fitness was -0.601 ± 0.13.

Q: For KPGPLPPNLDDLKVSELRQQLRIRGLPVSGTKTALMDRERPFQD [L39E], which abundance fitness is on record?
A: Its abundance fitness is -0.562 ± 0.1.

Q: Which abundance fitness does the source give for KPGPLPPNLDDLKVSELRQQLRIRGLPVSGTKTALMDRYRPFQD [L39Y] here?
A: Its abundance fitness is -0.505 ± 0.24.

Q: With KPGPLPPNLDDLKVSELRQQLRIRGLPVSGTKTALMDRVRPFQD [L39V] as the variant, how does the abundance fitness read?
A: The abundance fitness was -0.594 ± 0.092.

Q: Which abundance fitness does the source give for KPGPLPPNLDDLKVSELRQQLRIRGLPVSGTKTALMDRGRPFQD [L39G] here?
A: Its abundance fitness is -0.528 ± 0.1.

Q: For KPGPLPPNLDDLKVSELRQQLRIRGLPVSGTKTALMDRFRPFQD [L39F], which abundance fitness is on record?
A: Its abundance fitness is -0.755 ± 0.35.

Q: For KPGPLPPNLDDLKVSELRQQLRIRGLPVSGTKTALMDRTRPFQD [L39T], which abundance fitness is on record?
A: Its abundance fitness is -0.625 ± 0.14.

Q: For KPGPLPPNLDDLKVSELRQQLRIRGLPVSGTKTALMDRCRPFQD [L39C], which abundance fitness is on record?
A: The abundance fitness was -0.785 ± 0.27.

Q: With KPGPLPPNLDDLKVSELRQQLRIRGLPVSGTKTALMDRQRPFQD [L39Q] as the variant, how does the abundance fitness read?
A: The abundance fitness was -0.465 ± 0.14.

Q: Which abundance fitness does the source give for KPGPLPPNLDDLKVSELRQQLRIRGLPVSGTKTALMDRPRPFQD [L39P] here?
A: Its abundance fitness is -0.373 ± 0.084.

Q: Which abundance fitness does the source give for KPGPLPPNLDDLKVSELRQQLRIRGLPVSGTKTALMDRARPFQD [L39A] here?
A: The abundance fitness was -0.641 ± 0.099.
